This assay deals with human C4b (human), P0C0L5. Kind of assay: cell-based or functional assay.
Chain of human C4b (human), P0C0L5 (P0C0L5 20-1744): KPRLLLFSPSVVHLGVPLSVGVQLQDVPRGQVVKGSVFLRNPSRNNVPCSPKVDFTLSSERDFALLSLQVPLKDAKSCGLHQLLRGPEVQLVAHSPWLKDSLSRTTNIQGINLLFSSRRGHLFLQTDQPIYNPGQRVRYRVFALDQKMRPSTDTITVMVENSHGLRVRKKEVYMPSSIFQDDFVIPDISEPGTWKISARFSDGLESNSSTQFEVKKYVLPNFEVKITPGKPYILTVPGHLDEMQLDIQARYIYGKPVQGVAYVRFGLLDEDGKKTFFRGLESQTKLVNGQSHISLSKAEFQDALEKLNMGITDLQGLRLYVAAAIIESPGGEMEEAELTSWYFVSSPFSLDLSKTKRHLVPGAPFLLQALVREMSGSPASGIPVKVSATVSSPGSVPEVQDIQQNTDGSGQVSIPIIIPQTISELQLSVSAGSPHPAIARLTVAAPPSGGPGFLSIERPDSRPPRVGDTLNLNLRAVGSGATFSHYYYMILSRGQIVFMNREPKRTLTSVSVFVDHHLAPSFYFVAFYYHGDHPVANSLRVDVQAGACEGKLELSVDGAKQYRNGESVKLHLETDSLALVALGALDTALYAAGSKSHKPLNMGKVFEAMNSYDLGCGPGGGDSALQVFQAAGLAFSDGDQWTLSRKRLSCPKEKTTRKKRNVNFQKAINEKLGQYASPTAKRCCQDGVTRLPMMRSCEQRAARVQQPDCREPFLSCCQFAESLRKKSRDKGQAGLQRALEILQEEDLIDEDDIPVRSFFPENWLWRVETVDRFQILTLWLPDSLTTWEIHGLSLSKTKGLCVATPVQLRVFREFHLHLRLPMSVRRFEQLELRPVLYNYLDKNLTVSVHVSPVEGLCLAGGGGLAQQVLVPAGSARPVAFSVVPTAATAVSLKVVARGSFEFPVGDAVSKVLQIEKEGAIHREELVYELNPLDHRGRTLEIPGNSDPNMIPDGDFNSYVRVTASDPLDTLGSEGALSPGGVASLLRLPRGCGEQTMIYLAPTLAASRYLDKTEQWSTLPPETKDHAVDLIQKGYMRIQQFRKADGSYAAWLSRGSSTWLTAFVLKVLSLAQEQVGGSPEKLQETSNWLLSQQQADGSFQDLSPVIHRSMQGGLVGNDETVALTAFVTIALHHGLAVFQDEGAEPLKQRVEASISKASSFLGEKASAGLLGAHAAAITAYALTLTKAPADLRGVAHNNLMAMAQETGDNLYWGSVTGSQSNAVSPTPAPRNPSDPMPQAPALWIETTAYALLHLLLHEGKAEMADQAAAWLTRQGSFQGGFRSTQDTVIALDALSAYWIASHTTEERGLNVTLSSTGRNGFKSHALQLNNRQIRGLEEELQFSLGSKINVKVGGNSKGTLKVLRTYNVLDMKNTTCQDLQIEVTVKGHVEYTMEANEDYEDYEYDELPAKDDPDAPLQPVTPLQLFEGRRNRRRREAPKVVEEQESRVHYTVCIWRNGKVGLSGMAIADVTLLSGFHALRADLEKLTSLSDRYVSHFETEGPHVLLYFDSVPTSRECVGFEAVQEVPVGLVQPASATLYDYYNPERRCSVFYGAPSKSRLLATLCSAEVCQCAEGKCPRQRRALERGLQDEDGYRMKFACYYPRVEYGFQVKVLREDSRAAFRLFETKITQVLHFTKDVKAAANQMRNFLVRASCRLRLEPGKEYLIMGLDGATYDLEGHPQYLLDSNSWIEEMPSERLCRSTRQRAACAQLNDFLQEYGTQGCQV

B1: Const. No. 94: hCFI-PD (wild type plasma-derived human CFI), P05156 19-583 (enzyme)
chain: KVTYTSQEDLVEKKCLAKKYTHLSCDKVFCQPWQRCIEGTCVCKLPYQCPKNGTAVCATNRRSFPTYCQQKSLECLHPGTKFLNNGTCTAEGKFSVSLKHGNTDSEGIVEVKLVDQDKTMFICKSSWSMREANVACLDLGFQQGADTQRRFKLSDLSINSTECLHVHCRGLETSLAECTFTKRRTMGYQDFADVVCYTQKADSPMDDFFQCVNGKYISQMKACDGINDCGDQSDELCCKACQGKGFHCKSGVCIPSQYQCNGEVDCITGEDEVGCAGFASVTQEETEILTADMDAERRRIKSLLPKLSCGVKNRMHIRRKRIVGGKRAQLGDLPWQVAIKDASGITCGGIYIGGCWILTAAHCLRASKTHRYQIWTTVVDWIHPDLKRIVIEYVDRIIFHENYNAGTYQNDIALIEMKKDGNKKDCELPRSIPACVPWSPYLFQPNDTCIVSGWGREKDNERVFSLQWGEVKLISNCSKFYGNRFYEKEMECAGTYDGSIDACKGDSGGPLVCMDANNVTYVWGVVSWGENCGKPEFPGVYTKVANYFDWISYHVGRPFISQYNV
In turn, B1 returned a C4c EC50 of 412 nM.

B2: Const. No. 96: hCFI (wt hCFI, no signal sequence, no HSA), P05156 19-583 (enzyme)
chain: KVTYTSQEDLVEKKCLAKKYTHLSCDKVFCQPWQRCIEGTCVCKLPYQCPKNGTAVCATNRRSFPTYCQQKSLECLHPGTKFLNNGTCTAEGKFSVSLKHGNTDSEGIVEVKLVDQDKTMFICKSSWSMREANVACLDLGFQQGADTQRRFKLSDLSINSTECLHVHCRGLETSLAECTFTKRRTMGYQDFADVVCYTQKADSPMDDFFQCVNGKYISQMKACDGINDCGDQSDELCCKACQGKGFHCKSGVCIPSQYQCNGEVDCITGEDEVGCAGFASVTQEETEILTADMDAERRRIKSLLPKLSCGVKNRMHIRRKRIVGGKRAQLGDLPWQVAIKDASGITCGGIYIGGCWILTAAHCLRASKTHRYQIWTTVVDWIHPDLKRIVIEYVDRIIFHENYNAGTYQNDIALIEMKKDGNKKDCELPRSIPACVPWSPYLFQPNDTCIVSGWGREKDNERVFSLQWGEVKLISNCSKFYGNRFYEKEMECAGTYDGSIDACKGDSGGPLVCMDANNVTYVWGVVSWGENCGKPEFPGVYTKVANYFDWISYHVGRPFISQYNV
Turning to B2, the C4c EC50 came out at 340 nM.
